Target: FvCamlp (calmodulin like EF hand protein of Flammulina velutipes), freed of the GST tag (Flammulina velutipes)
Assay: SEC; Superdex 200, 25 mM Tris-HCl pH 7.5, 150 mM NaCl, 4 °C, flow 0.4 ml/min; in absence (5.0 mM EGTA) and presence of Ca2+ (5.0 mM); monomer to dimer

## FvCamlp (calmodulin like EF hand protein of Flammulina velutipes), freed of the GST tag (natural protein)
  stoichiometry N: 2
